From publication PMC3397946, “Identification and Characterization of the Cognate Anti-Sigma Factor and Specific Promoter Elements of a T. tengcongensis ECF Sigma Factor” come the findings set out here.

Changes are numbered by the printed parent chain. In names and notes the source's numbering stands.

For series [1], the target named is T1, Tt-RpoE1 (Thermoanaerobacter tengcongensis MB4T, UniProt Q8RCT7 1-162).
T1 sequence: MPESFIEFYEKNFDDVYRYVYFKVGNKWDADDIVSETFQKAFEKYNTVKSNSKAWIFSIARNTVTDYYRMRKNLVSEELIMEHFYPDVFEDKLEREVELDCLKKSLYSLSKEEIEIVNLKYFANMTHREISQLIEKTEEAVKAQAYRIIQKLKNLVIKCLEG
The experiment in a line: EMSA; 5 uM protein; strongest; 50 mM Tris-HCl pH 8.0, 10 mM MgAc2, 30 mM NaCl, 1 mM DTT, 5% glycerol, 30 ug/ml BSA, 0.5 mM EDTA, 1 ug poly(dI-dC), 20 fmol probe in 20 ul, 25 C, 20 min. Particulars: protein: recombinant; tags: His (pET28a); label: 5'-32P top strand; fork: top 3' overhang 12 nt. (In general: Mobility shift assays separate free from complexed probe on a gel.)

Series [2] concerns the target T1, Tt-RpoE1. The series can be described thus: EMSA; 5 uM protein; little effect; 50 mM Tris-HCl pH 8.0, 10 mM MgAc2, 30 mM NaCl, 1 mM DTT, 5% glycerol, 30 ug/ml BSA, 0.5 mM EDTA, 1 ug poly(dI-dC), 20 fmol probe in 20 ul, 25 C, 20 min. Particulars: protein: recombinant, tags: His (pET28a), label: 5'-32P top strand.
For series [3], the target named is T1, Tt-RpoE1. The series can be described thus: EMSA; 5 uM protein; abolished; 50 mM Tris-HCl pH 8.0, 10 mM MgAc2, 30 mM NaCl, 1 mM DTT, 5% glycerol, 30 ug/ml BSA, 0.5 mM EDTA, 1 ug poly(dI-dC), 20 fmol probe in 20 ul, 25 C, 20 min. Particulars: protein: recombinant; tags: His (pET28a); label: 5'-32P top strand; fork: top 3' overhang 10 nt.
The target of series [4] is T1, Tt-RpoE1. The experiment in a line: EMSA; 5 uM protein; abolition; 50 mM Tris-HCl pH 8.0, 10 mM MgAc2, 30 mM NaCl, 1 mM DTT, 5% glycerol, 30 ug/ml BSA, 0.5 mM EDTA, 1 ug poly(dI-dC), 20 fmol probe in 20 ul, 25 C, 20 min. The note with it: protein: recombinant; tags: His (pET28a); label: 5'-32P top strand; fork: top 3' overhang 10 nt.
The target in another series is T2, Tt-RpoE1 D66A (Thermoanaerobacter tengcongensis MB4T, UniProt Q8RCT7 1-162, D66A).
T2 sequence: T1 sequence with D66A
The experiment in a line: EMSA; 5 uM protein; D66A cures -12G defect; 50 mM Tris-HCl pH 8.0, 10 mM MgAc2, 30 mM NaCl, 1 mM DTT, 5% glycerol, 30 ug/ml BSA, 0.5 mM EDTA, 1 ug poly(dI-dC), 20 fmol probe in 20 ul, 25 C, 20 min. Particulars: protein: recombinant; tags: His (pET28a); label: 5'-32P top strand; fork: top 3' overhang 12 nt.

A further series has as its target T3, Tt-RpoE1 Y67A (Thermoanaerobacter tengcongensis MB4T, UniProt Q8RCT7 1-162, Y67A).
T3 sequence: T1 sequence with Y67A
The series can be described thus: EMSA; 5 uM protein; affinity remained; 50 mM Tris-HCl pH 8.0, 10 mM MgAc2, 30 mM NaCl, 1 mM DTT, 5% glycerol, 30 ug/ml BSA, 0.5 mM EDTA, 1 ug poly(dI-dC), 20 fmol probe in 20 ul, 25 C, 20 min. The note with it: protein: recombinant; tags: His (pET28a); label: 5'-32P top strand; fork: top 3' overhang 12 nt.

For a further series, the target named is T4, Tt-RpoE1 R69A (Thermoanaerobacter tengcongensis MB4T, UniProt Q8RCT7 1-162, R69A).
T4 sequence: T1 sequence with R69A
The description is as above. Particulars: protein: recombinant; tags: His (pET28a); label: 5'-32P top strand; fork: top 3' overhang 12 nt.

Series [5] addresses T1, Tt-RpoE1. The series can be described thus: EMSA; 5 uM protein; parental; 50 mM Tris-HCl pH 8.0, 10 mM MgAc2, 30 mM NaCl, 1 mM DTT, 5% glycerol, 30 ug/ml BSA, 0.5 mM EDTA, 1 ug poly(dI-dC), 20 fmol probe in 20 ul, 25 C, 20 min. The note with it: protein: recombinant; tags: His (pET28a); label: 5'-32P top strand; fork: top 3' overhang 12 nt.
Series [6] addresses T1, Tt-RpoE1. The series can be described thus: EMSA; 5 uM protein; 50 mM Tris-HCl pH 8.0, 10 mM MgAc2, 30 mM NaCl, 1 mM DTT, 5% glycerol, 30 ug/ml BSA, 0.5 mM EDTA, 1 ug poly(dI-dC), 20 fmol probe in 20 ul, 25 C, 20 min. Particulars: protein: recombinant; tags: His (pET28a); label: 5'-32P top strand; fork: top 3' overhang 10 nt.

B1: T+1/B-12 (dsDNA)
DNA 1: GGTATTGTTACCTTTTGTGTAGATTTTCGTCTATAAAGGTG
DNA 2: CGAAAATCTACACAAAAGGTAACAATACC
As for B1, the binding result in the series with Tt-RpoE1 [1] is recorded as “binds”.

B2: D-5-BM4 (-9TATA-6 to CCCC) (dsDNA)
DNA 1: TGTTACCTTTTGTGTAGATTTTCGTCCCCCAAGGTG
DNA 2: CGAAAATCTACACAAAAGGTAACA
In the case of B2, the binding result in the series with Tt-RpoE1 [2] (fork: top 3' overhang 12 nt) is on record as “binds”.

B3: D-5-6c (-30C to T) (dsDNA)
DNA 1: TGTTATCTTTTGTGTAGATTTTCGTCTATAAAGGTG
DNA 2: GACGAAAATCTACACAAAAGATAACA
For B3, the binding result with Tt-RpoE1 [3] was “no binding”.

B4: D-5-M5 (-32TACC-29 to GGTT) (dsDNA)
DNA 1: B3 DNA 1 with T4G, A5G, C7T
DNA 2: GACGAAAATCTACACAAAAAACCACA
As to B4, the binding result with Tt-RpoE1 [4] was “no binding”.

B5: D-5-B2G (-12G to T) (dsDNA)
DNA 1: B3 DNA 1 with T6C, G24T
DNA 2: AGAAAATCTACACAAAAGGTAACA
Regarding B5, the binding result with Tt-RpoE1 D66A is “binds”.

B6: D-5/-12 (dsDNA)
DNA 1: B3 DNA 1 with T6C
DNA 2: CGAAAATCTACACAAAAGGTAACA
Turning to B6, the binding result with Tt-RpoE1 Y67A, with Tt-RpoE1 R69A and in the series with Tt-RpoE1 [5] was “binds” each time.

B7: D-5-b6a/-12 (-8A to G) (dsDNA)
DNA 1: B3 DNA 1 with T6C, A28G
DNA 2: CGAAAATCTACACAAAAGGTAACA
Turning to B7, the binding result with Tt-RpoE1 [2] (fork: top 3' overhang 12 nt) is listed as “binds”.

B8: D-5-BM3 (-9TA-8 to CC) (dsDNA)
DNA 1: B2 DNA 1 with C29T, C30A
DNA 2: CGAAAATCTACACAAAAGGTAACA
As to B8, the binding result with Tt-RpoE1 [2] (fork: top 3' overhang 12 nt) is on record as “binds”.

B9: D-5-B1C (-13C to T) (dsDNA)
DNA 1: B3 DNA 1 with T6C, C23T
DNA 2: CAAAAATCTACACAAAAGGTAACA
In the case of B9, the binding result in the series with Tt-RpoE1 [2] (fork: top 3' overhang 12 nt) was “binds”.

B10: D-5/-10 (dsDNA)
DNA 1: B3 DNA 1 with T6C
DNA 2: GACGAAAATCTACACAAAAGGTAACA
With B10, the binding result in the series with Tt-RpoE1 [6] is recorded as “binds”.

B11: D-5-b5t/-12 (-9T to G) (dsDNA)
DNA 1: B3 DNA 1 with T6C, T27G
DNA 2: CGAAAATCTACACAAAAGGTAACA
On to B11, for which the binding result in the series with Tt-RpoE1 [2] (fork: top 3' overhang 12 nt) was “binds”.

B12: D-5-7c (-29C to T) (dsDNA)
DNA 1: B3 DNA 1 with T6C, C7T
DNA 2: GACGAAAATCTACACAAAAAGTAACA
For B12, the binding result with Tt-RpoE1 [2] (fork: top 3' overhang 10 nt) was “binds”.

B13: D-5-b8a/-12 (-6A to G) (dsDNA)
DNA 1: B3 DNA 1 with T6C, A30G
DNA 2: CGAAAATCTACACAAAAGGTAACA
B13: the binding result with Tt-RpoE1 [2] (fork: top 3' overhang 12 nt) is listed as “binds”.

B14: D-5-b7t/-12 (-7T to G) (dsDNA)
DNA 1: B3 DNA 1 with T6C, T29G
DNA 2: CGAAAATCTACACAAAAGGTAACA
Turning to B14, the binding result in the series with Tt-RpoE1 [2] (fork: top 3' overhang 12 nt) was “binds”.
